Laboratory results: patent publication US20110293610A1 (published 2011)

Molecular target: T1, HIS-tagged B Lymphocyte Stimulator (human, UniProt Q9Y275 71-285)
T1 construct: Expressed in E. coli from pQE9 and purified; also called histidine-tagged B Lymphocyte Stimulator; HIS-B Lymphocyte Stimulator; not shown: histidine tag of the pQE9 vector
Experiment: BIAcore, periplasmic scFv on high density HIS-BLyS surface
Procedure: (§1) All BIAcore analysis was performed on BIAcore 2000 machines, using the BIAcore 2000 control software and evaluated using the BIAevaluation 3.0 software. A high density His-tagged B Lymphocyte Stimulator surface (>1000 RU HIS-B Lymphocyte Stimulator coupled) was prepared in flow cell 2 by amine coupling to a CM5 chip. A new CM5 chip was inserted into the BIAcore and a sensorgram started over flow cell 2 with HBS buffer at a flow rate of 5 μl/min. The NHS and EDC solution were mixed 1:1 before injecting 30 μl over the CM5 surface. Fifty μl HIS-B Lymphocyte Stimulator (at 10 μg/ml in Sodium acetate buffer, pH4) was injected and allowed to couple to the surface. Thirty μl of ethanolamine-HCl solution was then injected to block free NHS esters. Prior to using the chip, 10 μl of 4M Guanidine hydrochloride in HBS was injected over the surface to strip the surface of non-covalently bound B Lymphocyte Stimulator. A blank surface (no HIS-B Lymphocyte Stimulator) was also prepared over flow cell 1 so that non-specific binding effects can be subtracted from the HIS-B Lymphocyte Stimulator binding curves.
(§2) The 96-well plate containing periplasmic scFvs was secured inside the BIAcore. Two ml of 4M Guanidine hydrochloride in HBS was placed in a rack inside the BIAcore for regeneration of the HIS-B Lymphocyte Stimulator surface between samples. The sensorgram was run over flow cells 1 and 2 at a flow rate of […].
T1 sequence (Q9Y275 71-285): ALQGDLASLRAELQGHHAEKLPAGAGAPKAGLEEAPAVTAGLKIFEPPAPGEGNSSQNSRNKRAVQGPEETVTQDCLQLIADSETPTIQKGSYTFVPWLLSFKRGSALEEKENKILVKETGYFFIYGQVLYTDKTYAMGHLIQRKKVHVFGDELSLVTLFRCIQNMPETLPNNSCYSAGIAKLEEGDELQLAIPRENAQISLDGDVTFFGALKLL

Binder | binding result
I083B12 (scFv) scFv: QVQLVQSGAEVKKPGASVKVSCKASEYTFYNHYMHWVRQAPGQGLEWMGFINPSGDAAWYAQKFQGRVTLTRDTSTRTVYMELSGLTSEDTAVYYCARESGAGGYYYDDYWGKGTLVTVSSGGGGSGGGGSGGGGSALSYVLTQPPSVSVAPGKTASIPCGGNNIGSKSVQWYLQKAGQAPILVVYDDSDRPSGIPERFSGSNSGNTATLTITRVEAGDEADYYCQVWDSSSDHWFFGGGTKLTVLG | binds
I082G01 (scFv) scFv: QMQLVQSGAEVKKPGASVKVSCKASGYTFTSYYMHWVRQAPGQGLEWMGLVHPNDGSVNYAQKFKGRVTMTRDTSTSTVYMELSSLRSDDTAVYYCARDRGSGWPNWYFDLWGQGTLVTVSSGGGGSGGGGSGGGGSDIQMTQSPSTLSASIGDRVTITCRASEGIYHWLAWYQQKPGKAPKLLIYKASSLASGAPSRFSGSGSGTDFTLTISSLQPDDFATYYCQQYSNYPLTFGGGTKLEIKH | binds
I080D03 (scFv) scFv: QVQLVQSGAELKQPGTSVKVSCKASGYSFSSYGVTWVRQAPGQGLEWMGWVSGNRGNTQYAQKFQDRVRMTTDTSTSTAYMELRSLRPDDTAVYFCARVGIKAAAVDNFEYWGRGTTVTVSSGGGGSGGGGSGGGGSAQSVLTQPPSASGTPGQRVTITCSGSSSNIGDYYVNWYQQVSGTTPKLIIYRDDQRPSGVPDRFSGSKSGASASLAISGLRSEDEANYFCAAWDDSLREFAFGTGTKVTVLG | binds
I080A03 (scFv) scFv: QVQLQQSGAELKQPGTSVKVSCKASGYSFSCYDVNWVRQAPGQGLEWMGRINPNSGNTHYAQKFQDRVTMTTDTSTSTAYMELNSLRPDDTAVYFCARVGIKAAAVDNFEYWGRGTTVTVSSGGGGSGGGGSGGGGSAQSVLTQPPSASGTPGQRVTITCSGSSSNIGDYYVNWYQQVSGTTPKLIIYRDDQRPSGVPDRFSGSKSGASASLAISGLRSEDEANYFCAAWDDSLREFAFGTGTKVTVLG | binds
I083G03 (scFv) scFv: QVQLVQSGAELKQPGTSVKVSCKASGYSFSSYGVTWVRQAPGQGLEWMGWVSGNRGNTQYAQKFQDRVRMTTDTSTSTAYMELRSLRPDDTDVYFCARVGIKAAAVDNFEYWGRGTTVTVSSGGGGSGGGGSGGGGSAQSVLTQPPSASGTPGQRVTITCSGSSSNIGDYYVNWYQQVSGTTPKLIIYRDDQRPSGVPDRFSGSKSGASASLAISGLRSEDEANYFCAAWDDSLREFAFGTGTKVTVLG | binds
I080G09 (scFv) scFv: QVQLVQSGAEVKKPGASVRVSCKSSGYTFTNYGISWVRQAPGQGLEWMGWISNNNGKTYYAQKVQGRVTMTTDTSTSTDYMELRGLRSDDTAIYYCARDNGGGTIGFDYWGQGTLVTVSSGGGGSGGGGSGGGGSAQSVLTQPPSVSGAPGQRVTISCTGSSSNIGADYDVHWYQLLPGTAPKLLIYGNTNRPSGVPDRFSGSKSGTSASLTIAGLQAEDEADYYCQSYDSSLSGSVVFGGGTKLTVLG | binds
I084C04 (scFv) scFv: VQLVQSGAEVKKPGASVKVSCKASGYTFTSYGISWVRQAPGQGLEWMGWINPNSGGTNYAQKFQGRVTMTRDTSISTAYMELSRLRSDDTAVYYCARNLWGLDYWGKGTMVTVSSGGGGSGGGGSGGGGSSELTQDPAVSVALGQTVRITCQGDSLRSYYASWYQQKPGQAPVLVIYGKNNRPSGIPDRFSGSSSGNTASLTITGAQAEDEADYYCNSRDSSGNHVVFGGGTKLTVLG | binds
I084B02 (scFv) scFv: QVQLVQSGGGLVQPGGSLRLSCAASGFTFSSYEMNWVRQAPGKGLEWVSYISSSGSTTYYADSVKGRFTISRDNAKNSLYLQMNSLRAEDTAVYYCARDTTDYWGQGTLVTVSSGGGGSGGGGSGGGGSDIVMTQSPSTLSASVGDRVTITCRASQGISSWLAWYQQKPGRAPKVLIYKASTLESGVPSRFSGSGSGTDFTLTISSLQPEDFATYYCQQSYSTPWTFGQGTKLEIKR | binds
I084A01 (scFv) scFv: QVQLVQSGGGLVQPGGSLRLSCAASGFTFSSYEMNWVRQAPGKGLEWVSYISSSGSTTYYADSVKGRFTISRDNAKNSLYLQMNSLRAEDTAVYYCARDTTDYWGQGTMVTVSSGGGGSGGGGSGGGGSQSVLTQPPSASGTPGQRVTISCSGSSSNIGSNTVNWYQRLPGAAPQLLIYNNDQRPSGIPDRFSGSKSGTSGSLVISGLQSEDEADYYCASWDDSLNGRVFGGGTKLTVLG | binds
I082A05 (scFv) scFv: QVQLQQSGGGVVQPGRSLRLSCAASGFTYSSYAMHWVRQAPGKGLEWVAVISYDGSIKYYADSVKGRFTISRDNSKNTLYLQMNSLRAEDTAVYYCARDLDFDYWGKGTLVTVSSGGGGSGGGGSGGGGSQSVLTQPPSVSAAPGQKVTISCSGSTSNIGNNYVSWYQQHPGKAPKFMIYDVSKRPSGVSNRFSGSKSGNTASLTISGVQAEDEADYYCSSYTSASTVIFGGGTKLTVLG | binds
I079B12 (scFv) scFv: EVQLVQSRGGVVQPGRSLRLSCAASGLTFSSYGMHWVRQAPGKGLEWVAVISYDGRNKYYADSVKGRFTTSRDNSKNTLYLQMNSLRAEDTAVYYCAKWTSSGAFDIWGRGTLVTVSSGGGGSGGGGSGGGGSDIQMTQSPSTLSASIGDRVTITCRASEGIYHWLAWYQQKPGKAPKLLIYKASSLASGAPSRFSGSGSGTDFTLTISSLQPDDFATYYCHQYSNYPLTFGGGTKLEIKR | binds
I082D07 (scFv) scFv: EVQLVQSRGGVVQPGRSLRLSCAASGLTFSSYGMHWVRQAPGKGLEWVAVISYDGRNKYYADSVKGRFTTSRDNSKNTLYLQMNSLRAEDTAVYYCAKWTSSGAFDIWGRGTLVTVSSGGGGSGGGGSGGGGSDIQMTQSPSTLSASIGDRVTITCRASEGIYHWLAWYQQKPGKAPKLLIYKASSLASGAPSRFSGSGSGTDFTLTISSLQPDDFATYYCQQYSNYPLTFGGGTKLEIKR | binds
I080G07 (scFv) scFv: QVQLVQSGAEVKKPGASVKVSCKASGYTFTSYAMHWVRQAPGQRLEWMGWINAGNGNTKYSQKFQGRVTITRDTSASTAYMELSSLRSEDTAVYYCAREGPGYYYGMDVWGQGTMVTVSSGGGGSGGGGSGGGGSALETTLTQSPGTLSLSPGERATLSCRASQAIGSNYLAWYQQKPGQPPSLLIYGASSRATGIPDRFSASGSGTDFTLTISRLEPEDFAVYYCQQYGSSITFGQGTRLEIKR [I080G07, listing 1 of 2 here] | binds
I080E05 (scFv) scFv: EVQLVQSGAAVKKPGASVKVSCKASGYTFTTYYIHWVRQAPGQGLEWMGIINPVNGNTIYAQKFQGRVTMTRDTSTGTVNMELSSLRSEDTAVFYCVREGGGDAYDVAPYYFDYWGQGTLVTVSSGGGGSGGGGSGGGGSAQAVLTQPSSVSGAPGQRVTISCTGSSSNIGDGYDVHWYQQLPGTAPKLLIYGNSHRPSGVPDRFSGSKSDTSASLAITGLQVEDEADYFCHSYDSSVSGWIFGGGTKLTVLG | binds
I079F06 (scFv) scFv: QVQLVESGGGLVQPGGSLRLSCAASGFTFSSYWMSWVRQAPGKGLEWVANIKQDGSEKYYVDSVKGRFTISRDNAKNSLYLQMNSLRAEDTAVYYCARDNLHAAFDIWGRGTLVTVSGGGGGSGGGGSGGGGSDIQMTQSPSTLSASIGDRVTITCRASEGIYHWLAWYQQKPGKAPKLLIYKASSLASGAPSRFSGSGSGTDFTLTISSLQPDDFATYYCQQYSNYPLTFGGGTKLEIKR | binds
I082B08 (scFv) scFv: QVQLVQSGAEVKKPGGSVKVSCKASAYTFTRYYMHWVRQAPGQGLEWMGIINPSGGRTSYAQKFQGRVTMTRDTSTSTVYMELSSLRSEDTAVYYCARDLGIAGTIYFDYWGKGTLVTVSSGGGGSGGGGSGGGGSQSVLTQPPSVSAAPGQKVTISCSGSTSNIGNNYVSWYQQHPGKAPKLMIYDVSKRPSGVPDRFSGSKSGNSASLDISGLQSEDEADYYCAAWDDSLSEFLFGTGTKLTVLG | binds
I079B05 (scFv) scFv: GVQLVESGGGLVKPGGSLRLSCATSGFRFSDYAMTWVRQAPGKGLEWVSSITGSGGGTHYAGSVRGRFTISRDNSKNTVYLQMNNLRPEDTAVYYCASFVLDYWGKGTLVTVSSGGGGSGGGGSGGGGSQSVLTQPASVSGSPGQSITISCTGTSSDVGGYNYVSWYQQHPGKAPKLMIYEGSKRPSGVSNRFSGSKSGNTASLTISGLQAEDEADYYCSSYTTRSTRVFGGGTKLTVLG | binds

Molecular target: T2, HIS-tagged B Lymphocyte Stimulator (human, UniProt Q9Y275 71-285)
T2 construct: Expressed in E. coli; also called HIS-B Lymphocyte Stimulator; histidine-tagged B Lymphocyte Stimulator; not shown: histidine tag from the pQE9 vector
Experiment: BIAcore, periplasmic scFv over high density HIS-BLyS surface
Procedure: as §1, §2
T2 sequence (Q9Y275 71-285): as the sequence (Q9Y275 71-285) above

Binder | binding result
I080G07 (scFv) scFv: QVQLVQSGAEVKKPGASVKVSCKASGYTFTSYAMHWVRQAPGQRLEWMGWINAGNGNTKYSQKFQGRVTITRDTSASTAYMELSSLRSEDTAVYYCAREGPGYYYGMDVWGQGTMVTVSSGGGGSGGGGSGGGGSALETTLTQSPGTLSLSPGERATLSCRASQAIGSNYLAWYQQKPGQPPSLLIYGASSRATGIPDRFSASGSGTDFTLTISRLEPEDFAVYYCQQYGSSITFGQGTRLEIKR [I080G07, listing 2 of 2 here] | binds
